# Assay results as given in patent EP4328239A1 (Max-Delbrück-Centrum für Molekulare Medizin in der …, dated 2024).
# Target: … (SEQ ID NO: 3) in complex with HLA-B*44:03 (human)
# Test: cell-based or functional assay
binder,measurement,value
"TCR6 (TCR, V domains shown, not shown: a dimerising Fc or GST) V domain 1: QKEVEQNSGPLSVPEGAIASLNCTYSDRGSQSFFWYRQYSGKSPELIMFIYSNGDKEDGRFTAQLNKASQYVSLLIRDSQPSDSATYLCAVSSNTGKLIFGQGTTLQVKP V domain 2: DAGVIQSPRHEVTEMGQEVTLRCKPISGHNSLFWYRQTMMRGLELLIYFNNNVPIDDSGMPEDRFSAKMPNASFSTLKIQPSEPRDSAVYFCASKWGQGAGDTQYFGPGTRLTVL",EC50 killing capacity,1.4 E:T ratio
